From patent publication US20150203577A1 (Chugai, published 2015)

T1: mouse FcγRIII (mouse, UniProt P08508 31-215)
T1 construct: also called mFcγRIII; mFcgRIII
T1 chain: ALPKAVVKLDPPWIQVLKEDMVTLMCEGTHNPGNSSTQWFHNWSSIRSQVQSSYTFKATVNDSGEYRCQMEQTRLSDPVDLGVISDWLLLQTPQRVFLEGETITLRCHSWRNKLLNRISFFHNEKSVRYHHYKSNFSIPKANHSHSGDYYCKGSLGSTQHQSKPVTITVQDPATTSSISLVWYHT

T2: mouse FcγRII extracellular domain with C-terminal His tag (mouse, UniProt P08101 30-210)
T2 construct: Made on the basis of NCBI NP-034317.1; also called mFcγRII; mFcgRII
T2 sequence: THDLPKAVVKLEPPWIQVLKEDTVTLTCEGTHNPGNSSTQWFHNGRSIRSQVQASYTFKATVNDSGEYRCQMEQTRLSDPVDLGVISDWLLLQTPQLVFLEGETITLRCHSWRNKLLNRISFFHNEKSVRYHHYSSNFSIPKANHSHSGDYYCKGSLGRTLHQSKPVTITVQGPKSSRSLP

T3: mouse FcγRIII extracellular domain with C-terminal His tag (mouse, UniProt P08508 31-215)
T3 construct: Made on the basis of NCBI NP-034318.2; also called mFcγRIII; mFcgRIII
T3 chain: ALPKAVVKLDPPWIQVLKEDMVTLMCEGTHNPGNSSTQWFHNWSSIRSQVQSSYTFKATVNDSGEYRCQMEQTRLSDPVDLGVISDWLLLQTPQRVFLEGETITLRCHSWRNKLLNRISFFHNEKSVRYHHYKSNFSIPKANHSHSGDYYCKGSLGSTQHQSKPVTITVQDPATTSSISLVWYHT


Assays:
mouse FcγRIII = biological target: T1, mouse FcγRIII; test: SPR (Biacore), antibody captured on Protein L, mFcγR as analyte
Description: Each altered antibody was analyzed for its interaction with each Fcγ receptor prepared above using Biacore T100 (GE Healthcare Japan Corp.), Biacore T200 (GE Healthcare Japan Corp.), Biacore A100, or Biacore 4000. The running buffer used was HBS-EP+ (GE Healthcare Japan Corp.). The assay temperature was set to 25° C. The sensor chips used were chips prepared by immobilizing Protein L (ACTIGEN or BioVision) onto Series S Sensor Chip CM5 (GE Healthcare Japan Corp.) or Series S Sensor Chip CM4 (GE Healthcare Japan Corp.) by the amine coupling method.
In order to calculate the KD value of each altered antibody for FcγR, kinetic analysis was conducted according to the following method: first, the antibody of interest was captured onto any of these chips and allowed to interact with mFcγR diluted with a running buffer. For the obtained sensorgram, the assay results were globally fit into the 1:1 Langmuir binding model using Biacore Evaluation Software to calculate an association rate constant ka (L/mol/s) and a dissociation rate constant kd (1/s). From these values, the dissociation constant KD (mol/L) was calculated.

[1] = biological target: T2, mouse FcγRII extracellular domain with …; test: SPR Biacore T200
[2] = biological target: T3, mouse FcγRIII extracellular domain with …; test: SPR Biacore T200
[3] = biological target: T2, mouse FcγRII extracellular domain with …; test: SPR Biacore T200; KD mFcγRIII / KD mFcγRII

relative mFcγRIII-binding activity (mIgG1 = 1) (mouse FcγRIII) [fold]	Kd [1] [nM]	relative mFcγRII-binding activity (mIgG1 = 1) [1]	Kd [2] [nM]	relative mFcγRIII-binding activity (mIgG1 = 1) [2]	I/A (mFcγRII selectivity) [3]	relative I/A (mFcγRII selectivity) (mIgG1 = 1) [3]	Binder
	0.694	303	24.4	11.6	35.2	26.2	H237-MB433/MRAL-k0 (antibody, mouse IgG1, kappa, copies: 2 + 2) heavy: QVQLQESGPGLVKPSETLSLTCAVSGHSISHDHAWSWVRQPPGEGLEWIGFISYSGITNYNPSLQGRVTISRDNSKNTLYLQMNSLRAEDTAVYYCARSLARTTAMDYWGEGTLVTVSSAKTTPPSVYPLAPGSAAQTNSMVTLGCLVKGYFPEPVTVTWNSGSLSSGVHTFPAVLQSDLYTLSSSVTVPSSTWPSETVTCNVAHPASSTKVDKKIVPRDCGCKPCICTPNEVEDVFIFPPKPKDVLTITLTPKVTCVVVDISKDDPEVQFSWFVDDVEVHTAQTQPREEQFNSTFRSVSELPIMHQDWLNGKEFKCRVNSAAFPAPIEKTISKTKGRPKAPQVYTIPPPKEQMAKDKVSLTCMITDFFPEDITVEWQWNGQPAENYKNTQPIMDTDGSYFVYSKLNVQKSNWEAGNTFTCSVLHEGLHNHHTEKSLSHSPGK light: not shown
	0.742	283	17.9	15.7	24.1	18	H237-MB438/MRAL-k0 (antibody, mouse IgG1, kappa, copies: 2 + 2) heavy: QVQLQESGPGLVKPSETLSLTCAVSGHSISHDHAWSWVRQPPGEGLEWIGFISYSGITNYNPSLQGRVTISRDNSKNTLYLQMNSLRAEDTAVYYCARSLARTTAMDYWGEGTLVTVSSAKTTPPSVYPLAPGSAAQTNSMVTLGCLVKGYFPEPVTVTWNSGSLSSGVHTFPAVLQSDLYTLSSSVTVPSSTWPSETVTCNVAHPASSTKVDKKIVPRDCGCKPCICTTYEVEDVFIFPPKPKDVLTITLTPKVTCVVVDISKDDPEVQFSWFVDDVEVHTAQTQPREEQFNSTFRSVSELPIMHQDWLNGKEFKCRVNSAAFPAPIEKTISKTKGRPKAPQVYTIPPPKEQMAKDKVSLTCMITDFFPEDITVEWQWNGQPAENYKNTQPIMDTDGSYFVYSKLNVQKSNWEAGNTFTCSVLHEGLHNHHTEKSLSHSPGK light: not shown
		146		8.7		16.8	H237-MB435/MRAL-k0 (antibody, mouse IgG1, kappa, copies: 2 + 2) heavy: QVQLQESGPGLVKPSETLSLTCAVSGHSISHDHAWSWVRQPPGEGLEWIGFISYSGITNYNPSLQGRVTISRDNSKNTLYLQMNSLRAEDTAVYYCARSLARTTAMDYWGEGTLVTVSSAKTTPPSVYPLAPGSAAQTNSMVTLGCLVKGYFPEPVTVTWNSGSLSSGVHTFPAVLQSDLYTLSSSVTVPSSTWPSETVTCNVAHPASSTKVDKKIVPRDCGCKPCICITYEVEDVFIFPPKPKDVLTITLTPKVTCVVVDISKDDPEVQFSWFVDDVEVHTAQTQPREEQFNSTFRSVSELPIMHQDWLNGKEFKCRVNSAAFPAPIEKTISKTKGRPKAPQVYTIPPPKEQMAKDKVSLTCMITDFFPEDITVEWQWNGQPAENYKNTQPIMDTDGSYFVYSKLNVQKSNWEAGNTFTCSVLHEGLHNHHTEKSLSHSPGK light: not shown

Continued, binder first:

Binder	relative mFcγRIII-binding activity (mIgG1 = 1) (mouse FcγRIII) [fold]	Kd [1] [nM]	relative mFcγRII-binding activity (mIgG1 = 1) [1]	Kd [2] [nM]	relative mFcγRIII-binding activity (mIgG1 = 1) [2]	I/A (mFcγRII selectivity) [3]	relative I/A (mFcγRII selectivity) (mIgG1 = 1) [3]
H237-MB636/MRAL-k0 (antibody, mouse IgG1, kappa, mouse IgG1 CH variant; copies: 2 + 2) heavy: QVQLQESGPGLVKPSETLSLTCAVSGHSISHDHAWSWVRQPPGEGLEWIGFISYSGITNYNPSLQGRVTISRDNSKNTLYLQMNSLRAEDTAVYYCARSLARTTAMDYWGEGTLVTVSSAKTTPPSVYPLAPGSAAQTNSMVTLGCLVKGYFPEPVTVTWNSGSLSSGVHTFPAVLQSDLYTLSSSVTVPSSTWPSETVTCNVAHPASSTKVDKKIVPRDCGCKPCICEVYEVENVFIFPPKPKDVLTITLTPKVTCVVVDISKDDPEVQFSWFVDDVEVHTAQTQPREEQFNSTFRSVSELPIMHQDWLNGKEFKCRVNSAAFPAPIEKTISKTKGRPKAPQVYTIPPPKEQMAKDKVSLTCMITDFFPEDITVEWQWNGQPAENYKNTQPIMDTDGSYFVYSKLNVQKSNWEAGNTFTCSVLHEGLHNHHTEKSLSHSPGK light: not shown	0.17						
H237-MB430/MRAL-k0 (antibody, mouse IgG1, kappa, copies: 2 + 2) heavy: QVQLQESGPGLVKPSETLSLTCAVSGHSISHDHAWSWVRQPPGEGLEWIGFISYSGITNYNPSLQGRVTISRDNSKNTLYLQMNSLRAEDTAVYYCARSLARTTAMDYWGEGTLVTVSSAKTTPPSVYPLAPGSAAQTNSMVTLGCLVKGYFPEPVTVTWNSGSLSSGVHTFPAVLQSDLYTLSSSVTVPSSTWPSETVTCNVAHPASSTKVDKKIVPRDCGCKPCICIPNEVEDVFIFPPKPKDVLTITLTPKVTCVVVDISKDDPEVQFSWFVDDVEVHTAQTQPREEQFNSTFRSVSELPIMHQDWLNGKEFKCRVNSAAFPAPIEKTISKTKGRPKAPQVYTIPPPKEQMAKDKVSLTCMITDFFPEDITVEWQWNGQPAENYKNTQPIMDTDGSYFVYSKLNVQKSNWEAGNTFTCSVLHEGLHNHHTEKSLSHSPGK light: not shown		1.02	207	45	6.3	44.3	33
H237-MB431/MRAL-k0 (antibody, mouse IgG1, kappa, copies: 2 + 2) heavy: QVQLQESGPGLVKPSETLSLTCAVSGHSISHDHAWSWVRQPPGEGLEWIGFISYSGITNYNPSLQGRVTISRDNSKNTLYLQMNSLRAEDTAVYYCARSLARTTAMDYWGEGTLVTVSSAKTTPPSVYPLAPGSAAQTNSMVTLGCLVKGYFPEPVTVTWNSGSLSSGVHTFPAVLQSDLYTLSSSVTVPSSTWPSETVTCNVAHPASSTKVDKKIVPRDCGCKPCICPPNEVEDVFIFPPKPKDVLTITLTPKVTCVVVDISKDDPEVQFSWFVDDVEVHTAQTQPREEQFNSTFRSVSELPIMHQDWLNGKEFKCRVNSAAFPAPIEKTISKTKGRPKAPQVYTIPPPKEQMAKDKVSLTCMITDFFPEDITVEWQWNGQPAENYKNTQPIMDTDGSYFVYSKLNVQKSNWEAGNTFTCSVLHEGLHNHHTEKSLSHSPGK light: not shown			113		4.2		26.8
H237-MB437/MRAL-k0 (antibody, mouse IgG1, kappa, copies: 2 + 2) heavy: QVQLQESGPGLVKPSETLSLTCAVSGHSISHDHAWSWVRQPPGEGLEWIGFISYSGITNYNPSLQGRVTISRDNSKNTLYLQMNSLRAEDTAVYYCARSLARTTAMDYWGEGTLVTVSSAKTTPPSVYPLAPGSAAQTNSMVTLGCLVKGYFPEPVTVTWNSGSLSSGVHTFPAVLQSDLYTLSSSVTVPSSTWPSETVTCNVAHPASSTKVDKKIVPRDCGCKPCICQTYEVEDVFIFPPKPKDVLTITLTPKVTCVVVDISKDDPEVQFSWFVDDVEVHTAQTQPREEQFNSTFRSVSELPIMHQDWLNGKEFKCRVNSAAFPAPIEKTISKTKGRPKAPQVYTIPPPKEQMAKDKVSLTCMITDFFPEDITVEWQWNGQPAENYKNTQPIMDTDGSYFVYSKLNVQKSNWEAGNTFTCSVLHEGLHNHHTEKSLSHSPGK light: not shown			198		11.5		17.3
H237-MB434/MRAL-k0 (antibody, mouse IgG1, kappa, copies: 2 + 2) heavy: QVQLQESGPGLVKPSETLSLTCAVSGHSISHDHAWSWVRQPPGEGLEWIGFISYSGITNYNPSLQGRVTISRDNSKNTLYLQMNSLRAEDTAVYYCARSLARTTAMDYWGEGTLVTVSSAKTTPPSVYPLAPGSAAQTNSMVTLGCLVKGYFPEPVTVTWNSGSLSSGVHTFPAVLQSDLYTLSSSVTVPSSTWPSETVTCNVAHPASSTKVDKKIVPRDCGCKPCICDTYEVEDVFIFPPKPKDVLTITLTPKVTCVVVDISKDDPEVQFSWFVDDVEVHTAQTQPREEQFNSTFRSVSELPIMHQDWLNGKEFKCRVNSAAFPAPIEKTISKTKGRPKAPQVYTIPPPKEQMAKDKVSLTCMITDFFPEDITVEWQWNGQPAENYKNTQPIMDTDGSYFVYSKLNVQKSNWEAGNTFTCSVLHEGLHNHHTEKSLSHSPGK light: not shown		0.818	257	18.3	15.5	22.3	16.7
H237-MB436/MRAL-k0 (antibody, mouse IgG1, kappa, copies: 2 + 2) heavy: QVQLQESGPGLVKPSETLSLTCAVSGHSISHDHAWSWVRQPPGEGLEWIGFISYSGITNYNPSLQGRVTISRDNSKNTLYLQMNSLRAEDTAVYYCARSLARTTAMDYWGEGTLVTVSSAKTTPPSVYPLAPGSAAQTNSMVTLGCLVKGYFPEPVTVTWNSGSLSSGVHTFPAVLQSDLYTLSSSVTVPSSTWPSETVTCNVAHPASSTKVDKKIVPRDCGCKPCICPTYEVEDVFIFPPKPKDVLTITLTPKVTCVVVDISKDDPEVQFSWFVDDVEVHTAQTQPREEQFNSTFRSVSELPIMHQDWLNGKEFKCRVNSAAFPAPIEKTISKTKGRPKAPQVYTIPPPKEQMAKDKVSLTCMITDFFPEDITVEWQWNGQPAENYKNTQPIMDTDGSYFVYSKLNVQKSNWEAGNTFTCSVLHEGLHNHHTEKSLSHSPGK light: not shown			151		8.4		18
